Assay results as given in patent US20160348147A1, “SYSTEMS AND DEVICES FOR PROTEASE DETECTION BASED ON ENGINEERED POLYMERS AND BIOPOLYMERS AND METHODS OF USE” (DUKE UNIVERSITY, priority 2014, published 2016).
Values joined by “and” are separate entries in the source; they are usually repeats but may differ in a detail not shown here. Identical values can stand only once.

Columns and labels:
MMP-1 = biological target: T1, MMP-1 (Homo sapiens, UniProt P03956); experiment: Thermal behavior (OD350, DLS) after incubation with MMP-1; format: biochemical; conditions: MMP-1 100 ng/mL, 12 h at 40° C.
T1 construct: Human MMP-1 catalytic domain (recombinant, produced in E. coli, 19.9 kDa, >95% purity); purchased Enzo Life Sciences (Farmingdale, N.Y.); host or cells: E. coli
T1 sequence (P03956 100-269 limits assumed): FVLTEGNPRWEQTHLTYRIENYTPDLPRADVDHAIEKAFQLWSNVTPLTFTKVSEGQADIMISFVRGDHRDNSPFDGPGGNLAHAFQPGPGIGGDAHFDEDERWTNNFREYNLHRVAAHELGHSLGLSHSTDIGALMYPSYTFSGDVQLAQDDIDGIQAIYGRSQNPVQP
Method: We performed the proteolysis reactions either in 100% protease buffer or in a mixture of human serum and buffer (40% (v/v) serum, 50% (v/v) buffer, 10% (v/v) ELP-substrate solution in water). The proteolysis buffer (100 mM HEPES, CaCl2 20 mM, MgCl2 1.0 mM, ZnCl2 100 μM, NaCl 0.5 M for diluted serum and 0.1 M for buffer solutions) was made experimentally in our lab based on previously published assays (Patterson, J. & Hubbell, J. A. Biomaterials 2010, 31, 7836-7845; Turk, B. E. et al., Nature Biotechnology 2001, 19, 661-667; Lowe, S. B. et al., Acs Nano 2012, 6, 851-857). We investigated proteolysis in two ways. In the first approach, we incubated solutions of the ELP-substrate fusion with MMP-1 (100 ng/mL) for 12 h at 40° C. temperature and measured the optical density at 350 nm (OD350) before and after the incubation. In the second approach, we incubated the ELP-substrate fusion with varying concentrations of MMP-1 (0.02 ng/mL to 200 ng/mL) in buffer or in diluted human serum, at 40° C. or 37° C. respectively, a temperature that is above the CMT of the ELP, and monitored the changes OD350 as a function of time (kinetic study). For the kinetic studies, we added the enzyme to the solution after the optical density of the solution reached a steady-state value and repeated the experiments at least three times. […]

[1] = Thermal behavior by optical turbidimetry and dynamic light scattering; format: physicochemical; conditions: 100 μM in buffer
Method: We confirmed the purity and molecular weight of the purified peptides by electrophoresis (10-20% gradient […] SDS-PAGE, Thermo Scientific, CA) and by matrix-assisted laser desorption/ionization mass spectrometry. Mass spectrometry samples were prepared by mixing the enzymatic reaction product with sinapinic acid in 1:10 ratio. 1 μL of the sample/matrix mixture was then loaded on the grid and the measurements were performed on a Voyager-DE-Pro instrument (Applied Biosystems, Germany). To determine the concentration of the ELP-substrate fusion solutions we used a calculated extinction coefficient (Gill, S. C. & Vonhippel, P. H. Analytical Biochemistry 1989, 182, 319-326) or lyophilized the polypeptide solution. We studied the thermal behavior of the ELP-substrate fusion constructs in both proteolysis buffer (see below) and diluted human serum in the presence and absence of MMP-1 using optical turbidimetry on a temperature-programmed UV-vis spectrometer (Cary 300, Agilent Technologies). To characterize the size of the micelles and aggregates, we used single angle dynamic light scattering (DLS; DynaPro, Protein Solution).
FIG. 2 presents optical densities at 350 nm (OD350) and hydrodynamic diameters of ELP-substrate fusion as a function of temperature prior to, and after, enzymatic reaction. […] These changes are consistent with the self-assembly of ELP-substrate fusions (unimers) into micelles as the temperature is raised above the CMT (Ghoorchian, A. et al., The Journal of Physical Chemistry. B 2013, 117, 8865-8874). We note that there is a slight local maximum in both the optical density and hydrodynamic diameter at temperatures slightly above the CMT, which has been observed previously (Hassouneh, W., Duke University, PhD thesis, 2013); the origin of this small peak is, as yet, unclear.

[2] = DLS, prior to enzymatic reaction

M(GVGVP)60GDGQVPMSMRGGDDEGQQDDEEGY (MGVGVPGDGQVPMSMRGGDDEGQQDDEEGY) [ELP-substrate fusion, recombinant polypeptide: ELP fused to MMP-1 substrate and charged hydrophilic peptide]
temperature above which large aggregates form after incubation with MMP-1 (MMP-1; 100 μM): ≈ 37 °C
particle diameter after incubation with MMP-1 (MMP-1; DLS at 38° C.): over a micron
critical micellization temperature (CMT) ([1]; prior to enzymatic reaction): ≈ 38 °C and 38 °C
hydrodynamic diameter above Tt [1, 2]: ≈ 50 nm
hydrodynamic diameter below the CMT [1, 2]: < 10 nm
increase of OD350 as the solution is heated through the CMT ([1]; before enzymatic reaction): about 0.2 OD units
